According to PMC5022061, “A Rapid and Efficient Luminescence-based Method for Assaying Phosphoglycosyltransferase Enzymes” (Scientific Reports, 2016):

What was measured:
[1] = target: T1, PglC from H. pullorum (PglC (H. pu)) (Helicobacter pullorum, UniProt E1B268); test: UMP-Glo luminescence (UMP release), time course; format: biochemical; conditions: 20 μM UDP-GlcNAc; 20 μM Und-P; 0.3 μM enzyme; 5 mM MgCl2; pH 7.5; 0.1% Triton X-100; 10% DMSO
T1 construct: N-terminal His6-SUMO tag, tag cleavage not mentioned; E. coli BL21-RIL; DDM-solubilized membrane fraction, Ni-NTA

[2] = system: CC(=O)N[C@H]1[C@@H](OP(=O)(O)OP(=O)(O)OC[C@H]2O[C@@H](n3ccc(=O)[nH]c3=O)[C@H](O)[C@@H]2O)O[C@H](C)[C@@H](NC(C)=O)[C@@H]1O; test: purified protein; conditions: 60 μM Und-P, 5 mM MgCl2, pH 7.5, room temperature, 0.1% Triton X-100, 10% DMSO
[3] = system: CC(C)=CCC/C(C)=C/CC/C(C)=C/CC/C(C)=C\CC/C(C)=C\CC/C(C)=C\CC/C(C)=C\CC/C(C)=C\CC/C(C)=C\CC/C(C)=C\CC/C(C)=C\COP(=O)(O)O; test: purified protein; conditions: 80 μM UDP-diNAcBac, 5 mM MgCl2, pH 7.5, room temperature, 0.1% Triton X-100, 10% DMSO

T1 sequence (E1B268 entry or part of it): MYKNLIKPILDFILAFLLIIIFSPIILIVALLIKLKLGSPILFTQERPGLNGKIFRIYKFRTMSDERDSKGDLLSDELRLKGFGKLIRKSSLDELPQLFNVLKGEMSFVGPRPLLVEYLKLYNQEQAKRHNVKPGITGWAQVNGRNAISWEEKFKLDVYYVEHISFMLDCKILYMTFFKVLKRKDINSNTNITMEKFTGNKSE

| Compound | UMP-Glo luminescence (UMP release), time course [1] | Km [2] | kcat [2] | Km [3] | kcat [3] |
| --- | --- | --- | --- | --- | --- |
| CC(=O)N[C@H]1[C@@H](OP(=O)(O)OP(=O)(O)OC[C@H]2O[C@@H](n3ccc(=O)[nH]c3=O)[C@H](O)[C@@H]2O)O[C@H](CO)[C@@H](O)[C@@H]1O [UDP-GlcNAc] | demonstrates that the H. pullorum PglC catalyzes turnover of these substrates | – | – | – | – |
| CC(C)=CCC/C(C)=C/CC/C(C)=C/CC/C(C)=C\CC/C(C)=C\CC/C(C)=C\CC/C(C)=C\CC/C(C)=C\CC/C(C)=C\CC/C(C)=C\CC/C(C)=C\COP(=O)(O)O [Und-P] | demonstrates that the H. pullorum PglC catalyzes turnover of these substrates | – | – | – | – |
| PglC from Campylobacter jejuni (SUMO-PglC) (Campylobacter jejuni subsp. jejuni NCTC 11168 = ATCC 700819) | – | 24.61 ± 3.30 µM | 5.67 ± 0.333 s⁻¹ | 7.18 ± 1.37 µM | 5.17 ± 0.333 s⁻¹ |
